A short description of the data set: Detection of transglycosidase activity (HPLC, MS of transglycosylation product). The settings on record: donor 2 mM NGA2-Asn-Fmoc, acceptor 50 mM p-nitrophenylglucose, pH 6.0, 30° C. Type of data set: biochemical. The protocol:
The transglycosidase activity of Endo-Om was detected by incubating the reaction solution containing a biantennary complex type sugar chain as the substrate, acceptor molecules (p-nitrophenylglucose), and an Endo-Om partially purified enzyme solution at 30° C. for 3 hours, and then subjecting it to HPLC after the completion of the reaction; a new peak different from the hydrolysate was detected, and was identified by MS analysis to be a transglycosylation product including an acceptor molecule to which a biantennary complex type sugar chain is added (FIG. 7).
The transglycosidase activity of Endo-Cp was detected by incubating the reaction solution containing a biantennary complex type sugar chain as the substrate, acceptor molecules (p-nitrophenylglucose), and an Endo-Cp partially purified enzyme solution at 30° C. for 3 hours, and then subjecting it to HPLC after the completion of the reaction; a new peak different from the hydrolysate was detected, and was identified by MS analysis to be a transglycosylation product including an acceptor molecule to which a biantennary complex type sugar chain is added (FIG. 11).
The transglycosidase activity of Endo-Pa was detected by incubating the reaction solution containing a biantennary complex type sugar chain as the substrate, acceptor molecules (p-nitrophenylglucose), and an Endo-Pa partially purified enzyme solution at 30° C. for 16 hours, and then subjecting it to HPLC after the completion of the reaction; a new peak different from the hydrolysate was detected, and was identified by MS analysis to be a transglycosylation product including an acceptor molecule to which a biantennary complex type sugar chain is added (FIG. 15).
The transglycosidase activity of Endo-Om was detected as follows. The reaction solution containing a sodium acetate buffer at a final concentration of 100 mM (pH 6.0), 2 mM NGA2-Asn-Fmoc, 50 mM acceptor molecule (p-nitrophenylglucose), and an Endo-Om purified enzyme solution (total volume: 10 μl) was incubated at 30° C. for 3 hours, and heated at 95° C. for 5 minutes to stop the enzyme reaction. The total amount of the reaction solution was subjected to HPLC by the method described in Example 4, and detection was carried out using a UV detector (274 nm). In addition, the peak corresponding to a transglycosylation product was collected, freeze-dried, and then redissolved in Milli-Q water and subjected to mass spectrometry using MALDI-QIT-TOFMS (AXIMA-QIT, Shimadzu Co., Ltd.), thereby identifying the transglycosylation product.
The transglycosidase activity of Endo-Cp was detected as follows. […]
The transglycosidase activity of Endo-Pa was detected as follows. […]

“Also recorded” adds a separate entry of the source.

B1: Endo-Cp: endo-β-N-acetylglucosaminidase from Candida parapolymorpha DL-1 ATCC26012, amino acid sequence SEQ ID NO. 5, 745 amino acids (protein, listed as Candida parapolymorpha)
chain: MPRNTAKHSSLPQTNLPLSSLESSFFDSLDELANWERRIHEKSFELDELNKPTEKLAHYTRARQQSTSEDVKLLVCHDLKGGYQVNEDEDPLGYFPHPDGQHYFLQYPQLVDKFVYFSHHRVSIPPVSWINVCHRNAIKCLGTVIFEGNTYRDFEEADKLLTKQDGEYVFVRCLVALVEYFQFDGYLFNIETRFSNTRIASLLEPFLEQLRAELHVRNPSTELIWYDSYIYPENRVLYKNGVTEANYNFFSCCDSFFTNYWWNVKHLQDNIKNVGVLGSRLKVYAGYDVWGRGTMIGKGGYDSALACQMIKKYRSNVALFAPAWTYEYLARKDFTQNDTRFWIGLFDGESSMATTFKPYSSPLYKINDSNFVFYTNFGSGEGCAFYECGEKVYRDNWVNGSLQMEIPYAIHTRNKNGIQWTLSKEDSFHGGSCVEIKYNEVVDDKGYQVFNNQTINSFSLFSFVQDCSFPTVNVKLTYKLNHKTKSFFKLKIGYYIERRYRTVQKVRSGCLVVPLLSTNDQWFTIEEPFHVSLQNSHEFIVLDSATIFYEETEDPFMRAHVVEDQSTSSVIDNEEYEKLMNSEIYFDDEDEDWILVPSDISMESTDNGGRENHTWKVISNQIRKKHPKSHPSTSPVLKLGELAIINANDYPSDSFFKLMPVNSIDVRRWEGKILLIWKTNQDSVLYHLIFVDDVFQGISLVSKFVFEDQAVDEKSFKTKSGGSTKVRIDTVNRLGILVKGTDM
Take B1: for the setting “3 hours”, the Transglycosidase activity result is given as “significant transglycosidase activity was confirmed; also recorded: has activity for transferring the cleaved sugar chain to any acceptor molecule”.

B2: Endo-Om: endo-β-N-acetylglucosaminidase from methylotrophic yeast Ogataea minuta IFO10746, amino acid sequence SEQ ID NO. 1, 772 amino acids (protein, listed as Ogataea minuta)
chain: MAQSQLLGGAVRPVFFDKLEELRRWHTQSANLSRESELDSLNVATEPFSSYERAQTGSGSRSSEPVPGDKEDPPIKLMVCHDFKGGYQDYEDAQPLGYFPHPTGSRYFLQYPQLIDQFVYFSHHRVTVPPVNWINFCHRNGIKCFGTVIFEGNASKDFEELDRLVSRDEKGDFVFVDALIKLAAHYGFDGYLLNIETTFSNTKIAADLEPFAEQLKSGLHCLDSKNELIWYDSYVFPANKVSYTNGVTESNYNFFSLSDAFFSNYWWNIKNLQENIKNVGVLGVQKKIYVGYDVWGRGTLVGKGGFDSSLACKMIAKFKSNVALFAPAWTYESLGPKDFNQNDARFWIGLFENESSISSTVPPHSSAVYKINESSFIFYTNFSSGEGNRFFSKGSEVYRKNWVNGSLQFDLPIDLHRKDKNGLQWALDKSDAFHGGACLEIKYSEIKDENGYQIFNNQMVSDFTLFNFTKECHFPTVNVKVTYKLNHKTKSTFKIKIKYIIERRFRSVQTVRTGYLTIPLLSTSGKWFTVEESFQINLQTSHEYIVLESAHVTYDEDRSADSFFRSYIVEDSAITSVIDNEEYEKLINSEIYNDDEDEDWILVPSDVSISSSESQSNDSKTQYLGRKLFGNKSTPKTRTLEGTAPLLRIGEFAIISANNYPSSNFLAVTSVKSIESSRLEGDSLVLLNWQVGEGHQKGVCYYIIYVNGAVVGLSVAPKFIYQDTELASENSASARSNYKKSGLGSSSDRKSKVRVDSVDKLGNVFTGSEVWV
For the molecule B2, the Transglycosidase activity result (3 hours) is given as “has activity for transferring the cleaved sugar chain to any acceptor molecule; also recorded: significant transglycosidase activity was confirmed”.

B3: Endo-Pa: endo-β-N-acetylglucosaminidase from Pichia anomala ATCC36904, amino acid sequence SEQ ID NO. 9, 656 amino acids (protein, listed as Pichia anomala)
chain: MQHDHAAIKFEEDSISSQRFSSLDEVEKWYNTKNRSPLDDLRIPRESLSHYNRFRDNNDEIKVLVCHDFKGNYQEGEDENPLGYFPHSSGQHYFIQFPSLVDLFIFFSHYKIAVPPVSWINSLHRQGIPVLGTLIFEGTDVSESDKLLEKNENGDFKYLEILCELVRHYGFDGWLVNMESHFSSVAKAQDLLLFDEALRSTLHLKVPGSKLIWYDSLITQKNRVFYQNAVNEWNYDHFSTSDLFFTNYWWNEEDLKRNILNIGLQGVKQKLFVGVDIWGRGSRIGNGGFESGLAINYLKRYSTNVALFAPAWTYENFEEDQFLIKDRKFWIGDQTSDETGGSVATYVSHYTTPVYVKDQNVKFYTNFSVGEGTKYRVFAHTVFKNNWVNGNLQLPTPIIDNEKRIDIYYKESFNGGSSLKVTQRNSILNDGKSNILQLFSFKNDIHSNNLNVSVSFKYLSEIPLNSTFQLEIKFYIERRYRSVTRVRDGTFKLPLAFSNKNWKYIETSFALPRLQIREHFVLEGLQIRWVDNVDELSSSIGTSGDFTESWIIVPQNSDPNAVYELLIGDLLVEGIKTANGNIDAVTKLSRKITLDSRSILATWKDDTEVLYWIIYVNAKFLGIAHKSLWRVQRGDKLRVDVFTRSGKLVKGEDIFI
On to B3, for which, under “16 hours”, the Transglycosidase activity result is listed as “significant transglycosidase activity was confirmed; also recorded: has activity for transferring the cleaved sugar chain to any acceptor molecule”.

B4: Endo-Zr: endo-β-N-acetylglucosaminidase from Zygosaccharomyces rouxii ATCC2623, amino acid sequence SEQ ID NO. 13, 639 amino acids (protein, listed as Zygosaccharomyces rouxii)
chain: MKRINQVPGKPEITSLYFDDLNSLQRWFDKGFMDSRDLSNVPKERYSNYVKFEKDSIITIPNLSARKTEIIVCHDFKGGYQSGHDLYPNGQYGTESCKPYSLRYPEIVDKFVYFSHHCVTIPPSPWTNYLHRHSIPVLGTLILEHYPHNGELFKKNAKGEFLYVKYLVELCRKFHFEGWLINFETVFGNNSKQVIPFLRELTARVECEIYGGSVIWYDAFTTFSNKPSHQNEVNLFNYDAYENSSQFMTNYMWDSHNVGNSLRNVGALGMHSHVALGVDVWGRNMQVCRGGFESNIAIYYAKRFGTNAVIFAPGWTYENFGEDQFYEKDDIFWGNIKSTLQLDSYSDSQLSSWFVSESKKTRYFTTFFSTGSGNFFNLNGRRISNDNWVQLGLSTPFPVNSHSYLSFKDSFVGGSCLALPLSPMENGKLHLFRFEQFIKDQQKTSDSEIRVKLSYKSLGALPPVKLVIKCFVIRRGKRSKTILKVDDVSLVLPLSHSACQTAQGSTKWAVVEQIVPLPSLESRFLEEYYVEDAHLEWTMDNNHDEWLMVPERTEDLDCKLLIGSLCLEIGPHEDNNKRQIVRNGPQLSWQDNESSFMWLKLQDGKLDSVLFTPTTKVNGKQPTILECGRNGTLKFVVKK
As for B4, the Transglycosidase activity result (16 hours) is on record as “not detected; also recorded: transglycosidase activity was not confirmed”.

Values taken from US9371519B2, “Complex type sugar chain hydrolase” (National Institute of Advanced Industrial Science and …, priority 2011, dated 2016).
